These results are taken from the DeepSol protein solubility set.

This data set in a line: soluble on expression in E. coli; label from the status in PepcDB or PDB records.
Regarding “MGSDKIHHHHHHMLSRTADNLYWMTRYVERAENMARILDVSYRMSQLPRNGTDAAVEWEPALIISGQKPDFETRFEEITAGNVIAYMALDPENPSSIVSTLHAARENARAERFVLPQEMFEGLNATWLELQSLSYARLVDWGFREFFEWVKERSHQFLGTTIGTMLQTDGFHFTRLGTFIERADNTARLLDVKYHVLMPDENRLDEAVDYYQWGAVLRAMSALKAYRMVYRDTIKPRQVIDLLTLKREFPRSLHLCYENLHDLLEHLAPGAECTRLTGEMHAKLRYGRIQDITRRGLHRFLTDFITHNAAVSAEIGRTFHLVADIGVQTPVKEAKEAKRADDGGEAEEAGSVQQQRQ”, the “soluble on expression in E. coli” value was “not soluble”. The result for “TESVYITTPYLIIDYDLTETIKNAAMRGVDVRIITPYIPDKKFIQLVTRGAYPDLLSAGVRIYEYSPGFIHSKQMLVDEDFAVVGTINLDYRSLVHHYENAVLLYKTPSIREIARDFRNIFADSQEVYPHSIKT” reads “not soluble”; that for “RKEEVLFGSFRLFTVTPVRYIKEIVTIGFPASIQNLIYASISMVLTRLVTGWGDTAVAIQRVGGQVESVSWMVGEGFAAAVNSFTGQNFGAGLFDRVKKGFSAAVK”, “not soluble”. The result for “MKGLFLIFHGFEAFNGISKKIRYQVKALKECGLEMHTCWLDDTDNHKRRMVDESIIADYGFGIKGKILKRIEFDSIVHYVQKENIDFIYVRYVHNASPFSIRLMKLLKKTGARIVMEIPTYPYDQEYKGLPFVYQRILFIDKCFRQHLARYVDKIVTFSDYDIIWNRPTIRISNGIDFSEIPLRGPKNDTAHSLQLIAVATMHPWHGFDRVIAGMANYYRTHTDTHDYKVYLNIVGFGVPELVDSYKKDVAKHQLEKYIIFHSALYGKELDAVFEQSDMGIGSLARHRSGIDKIKTLKNREYAARGIPFVYSETDDDFEHQPYILKAAPDDSPLDIEKVIRFYQSLKTTPLQIRMSIEQSLSWKAQMQIVINETFE” reads “not soluble”; that for “MGSDKIHHHHHHMEKVKVKNPIVELDGDEMARVMWKMIKEKLILPYLDIQLVYFDLGIKKRDETDDQITIEAAKAIKKYGVGVKCATITPDAERVKEYNLKKAWKSPNATIRAYLDGTVFRKPIMVKNVPPLVKRWKKPIIIGRHAYGDIYNAVEAKVEGPAEVELVVRNKENKTLLVHKFEGNGVVMAMHNLEKSIRSFAQSCINYAISEKVDIWFATKDTISKVYHAYFKDIFQEEVDKRKEELEKAGVNYRYMLIDDAAAQILRSEGGMLWACMNYEGDIMSDMIASGFGSLGLMTSVLVSPDGVYEFEAAHGTVRRHYYRYLKGEKTSTNPTASIFAWTGAIRKRGELDGTPEVCEFADKLEKAVINTIESGVITKDLQPFTEPPIDKYVTLEEFIDEVKKNLEKLL”, “not soluble”; that for “MEKKIEKVRQFYTALAQGDFETVGALLSDDLVWHQPGQGALSGTYNGKQNVFAHLERMAQLSNGTFAIDQVDYVTDNGNLVAAAIAFAVSANGHSIEMKGVDLFNFENGFIKKVWLFSERIEEESRFWTALAQGC”, “not soluble”. As for “MSTHLQGSLFDQTDELGLGPLDGLRRTVLGAGAWIDLLPGWLSGADALFERLAADVPWRAERRKMYDQTVDVPRLLAYYRAGDTLPHPVLAEARDALSAHYVAELGEPFTTAGLCYYRDGRDSVAWHGDRIGRGAREDTMVAILSVGAPRDLALRPRGGGDVLRRPLGHGDLIVMGGSCQRTWEHAIPKSTRAAGPRISIQFRPSGVNLEHHHHHH”, the entry is “soluble”. Consider “MLTLLRRGLLVFLAAFPLLSMAAPTPQQVVQGTVDELLSDIKANKAAYKADPQKLYATLDRILGPVVDAEGIAKSVMTVKYSRQASPEQIKRFEEVFKNSLMQFYGNALLEYDNQDIRVLPSSAKPSDDRASVNMEIRDSKGTVYPVSYTMTNLAGGWKVRNVIINGINIGKLFRDQFADTMQKNRNDLEKTIAGWGEVVAKAKETAKAEEAGAKAAALEHHHHHH”, for which the “soluble on expression in E. coli” value is “soluble”. The result for “MPFILRRERSILKTALPPIRDDAVLCPLLPFQSAQLKEVERKHHAGTLSGNPHIQYRKILLHPHTTQSFLHVDEEVVCTSGKLLVLDFVMRFLQRTQHKLLVVCGWTLILDIVETLCGMRGIPYVRLDGRTMVKQREANIRGFNRSVANGNGVVEEAGGGGGDAEGDAATSRPRRNSRQRASTDTTGGPSPNADGRGDEEDGSSLPLATPCCFLISKVAGGAGLNLQAADTVFLLDVDYNPQRDAQALSRVYRVGQSKEVRVFRLIIDHAIEHDIVAIHEAKDDLGRAVVQAGCYDLHSSAHEREAALQGIFRAGALSRLSQQWTTTTRTADDTQGDSGEEEREEAVPSPCASFPPMTFPRCDLKDEGGADSDTEEVGKASPSPAQKSTDLHCVFISGGSGGARAMSSAPRKQVKTEMESEGSGRLADAADGEISVAVAGDVNPQCALLPHRRRRRHISFKLEKDDSEEGGGKAGRGDPAADPAGNARKLANPATAPLLFTAPPPHPSMTAAEVGEAVAAATARVQAPAEHRLAMRERLEEVLLRRKGERHVLEDMFRSV” reads “soluble”; that for “MGSDKIHHHHHHMTDTAPAANIATLSELLKLSGSQYRLYDIGRLVSELPKEQFEKVELNQLPYPTPTQGCACIAIAFWQKQSSQPYLWLLKLPLDERGLLNQGARNHFIAIIVEALGADLTQETSKKQEELLSSNPYLFTPAQYKLASLNSKIKVDLKQQPSAYFSPFREYLSHGSDWGNWQGVGVQGITDFIARIKHDNHSELLLNALPHLPDEVLSPVCSALENEQYPVVLIDALVSALENALIIPDNSVKTMQLLRSLAANSDHTHVRKVVGQLLSNQEVSSELLITLSGRCWQALADEKMLMCYFEHLLSNNNLPLFSSIFKDLVTIPLIRPVAFQCIRSEDRSPALAQAIGQLLSQT”, “not soluble”. The result for “MGHRSRSNSRSQSRSRENSRGRSRSASKSPVYHRRERESSRSRSPRARYGGGGGGGGGGGRGRNQQYDRENPQPSKCLGVFNLSSYTTEKDLRDVFGEFGEINKCDLVYDRPSGNSRGFGFIYFNLIEDATAARDKLCNTDLDGHKIRVDFSLTKRGHSPTPGQYMGDRRGGGSSGGGRFGGGGGDRFNDRGSRGGDRYGGDRRGGGGGGGGDRYGGGGGDRYGGDRYGGGGGRRGSPDRRGGFRSGGGGGGYMRSGGGGGGPDRRDHRDNDRNGGGGGHRPYDPSFRRRVESYGSGNSGGGGGRRDRY” reads “not soluble”; that for “MSLIDLKQYEFWFLVGSQYLYGLETLKKVEQQASKIVDSLNDDPIFPSKIVLKPVLKSSSEITEIFEKANADPKCAGVIVWMHTFSPSKMWIRGLSINKKPLLHLHTQYNREIPWDTIDMDYMNLNQSAHGDREHGFIHARMRLPRKVVVGHWEEKEVREKIAKWMRVACAIQDGRMGQIVRFGDNMREVASTEGDKVEAQIKLGWSINTWGVGELAERVKAVPEREVEELLKEYREKYIMPEDEYSLKAIREQAKIEIALREFLKEKNAVGFTTTFEDLHDLPQLPGLAVQRLMEEGYGFGAEGDWKAAGLVRAIKVMGTSLPGGTSFMEDYTYHLTPGNELVLGAHMLEVCPTIAKEKPRIEVHPLSIGGKADPARLVFDGQEGPAVNASIVDMGNRFRLVVNKVLSVPIERKMPKLPTARVLWKPLPDFKRATTAWILAGGSHHTAFSTAIDVEYLIDWAEALEIEYVVIDENLDLEDFKKELRWNELYWGLLKREGHHHHHH”, “soluble”. The result for “MGSDKIHHHHHHMLSALWVSKTGLSAQDMNLTTISNNLANVSTTGFKRDRAEFQDLLYQIRRQPGGQSTQDSELPSGLQLGTGVRVVGTQKIFTPGSLQTTEQPLDMAVNGRGFFQVLLPDGTVSYTRDGSFHLNSDGQIVTSNGFALEPAIVVPNETQTFTVGQDGTVSVTTTGNAQPQVIGNIQTADFINPAGLQAIGNNLFLETGSSGAPQVGTPGLNGLGTVAQNTLENSNVNVVEELVNMITTQRAYEMNSKVISTADQMLSFVTQNL” reads “not soluble”; that for “MSFNPDYESVAKAFIQHYYSKFDVGDGMSRAQGLSDLYDPENSYMTFEGQQAKGRDGILQKFTTLGFTKIQRAITVIDSQPLYDGSIQVMVLGQLKTDEDPINPFSQVFILRPNNQGSYFIGNEIFRLDLHNN”, “not soluble”. For the sequence “MESENIISAADKARILAEALPYIRRFSGSVAVIKYGGNAMTEPALKEGFARDVVLLKLVGIHPVIVHGGGPQINAMLEKVGKKGEFVQGMRVTDKEAMDIVEMVLGGHVNKEIVSMINTYGGHAVGVSGRDDHFIKAKKLLIDTPEQNGVDIGQVGTVESIDTGLVKGLIERGCIPVVAPVGVGEKGEAFNINADLVAGKLAEELNAEKLLMMTNIAGVMDKTGNLLTKLTPKRIDELIADGTLYGGMLPKIASAVEAAVNGVKATHIIDGRLPNALLLEIFTDAGIGSMILGGGEDA”, the “soluble on expression in E. coli” value is “not soluble”. The result for “LRVFSSDGKLIAEFGEMRRTPIRFAEIPPNFINALLSAEDDNFANHYGVDPSSLMRAATQLVKSGHIQSGGSTITMQVAKNFFLTSERSFSRKTTEILLALQIERQLTKDEILELYVNKIYLGNRAYGIEAAAQVYYGKSIRDVSLAQMAMIAGLPKAPSRFNPLANA” reads “not soluble”; that for “MGSDKIHHHHHHMKIYVDGREVIINDNERNLLEALKNVGIEIPNLCYLSEASIYGACRMCLVEINGQITTSCTLKPYEGMKVKTNTPEIYEMRRNILELILATHNRDCTTCDRNGSCKLQKYAEDFGIRKIRFEALKKEHVRDESAPVVRDTSKCILCGDCVRVCEEIQGVGVIEFAKRGFESVVTTAFDTPLIETECVLCGQCVAYCPTGALSIRNDIDKLIEALESDKIVIGMIAPAVRAAIQEEFGIDEDVAMAEKLVSFLKTIGFDKVFDVSFGADLVAYEEAHEFYERLKKGERLPQFTSCCPAWVKHAEHTYPQYLQNLSSVKSPQQALGTVIKKIYARKLGVPEEKIFLVSFMPCTAKKFEAEREEHEGIVDIVLTTRELAQLIKMSRIDINRVEPQPFDRPYGVSSQAGLGFGKAGGVFSCVLSVLNEEIGIEKVDVKSPEDGIRVAEVTLKDGTSFKGAVIYGLGKVKKFLEERKDVEIIEVMACNYGCVGGGGQPYPNDSRIREHRAKVLRDTMGIKSLLTPVENLFLMKLYEEDLKDEHTRHEILHTTYRPRRRYPEKDVEILPVPNGEKRTVKVCLGTSCYTKGSYEILKKLVDYVKENDMEGKIEVLGTFCVENCGASPNVIVDDKIIGGATFEKVLEELSKNG”, “not soluble”.

As for “LEQVNDKRISPLRPMRLRLIPLKCKTQPKKGKLSLQSVQKIYVNPRSNGTFKRVPLAGDLFKSRMRQPERDMQKNKLHDSDWQSNM”, the “soluble on expression in E. coli” value is given as “soluble”. The result for “MQVLDKTQVEAVSKALGEPAWLLEKRLKALEAFARLPYPSKKDENWRYTDLSEAPLELPVEAPKGLRLSRDDLPEPVKRRLERTDVSGFLVFVGPDLVYAEVPEALKEKGLVFTSLAEALKTHPDKVEAALFQAVYTEDKFAAQNSAFFTHGAFLYVPAGLEVEKPLGVFKVLLEGEKASAGRSLLFLEDNAKAAYIEEYLSLDLPPTLHLSATEMVLRPGARLRHAHVQTFGEGVWHFHRQRALLERDSGLNDLVVNLGGAYARSEVASELVGPGAESEMLGLYFGHGRQQFDHYTLQHHVEHHTRSDLLYKGAVKDEARAVFSGLIRLEKGAQKTDAYQANRNLLLSPTARVDSIPQLEIGANDVRCTHGSTTAPVDEMQLFYLQSRGLPRGLAQELLVKAHLADVLSRIPLKALRAHIEAVIEEKVRI” reads “soluble”.
